Laboratory results from patent US20190144550A1.

Columns and labels:
[1] = target: wild-type EGFR expressed on cells (human), P00533; assay: flow cytometry, A431 cells; details: remark: other sources report otherwise
[2] = target: wild-type EGFR expressed on cells (human), P00533; assay: flow cytometry, F98-EGFRwt cells; details: remark: other sources report otherwise

B1: 34E7 (antibody, V domains shown)
VH: EVNLVESGGGLVKPGGSLRLSCEASGFTFSYAWMSWVRQAPGKGLEWVGRIKSINDGGATDYASPVRNRFTISRDDSRNMLYLEMHSLKTEDTAVYYCTTIPGNDAFDMWGQGTLVTVSS
VL: DIVLTQSPLSLSVTPGEPASISCRSTQSLLYSNGKNYLDWFLHKPGQSPQLLIFLGSIRASGVPDRFSGSGSGIDFILKISRVEAEDVGVYYCMQAQQTPITFGQGTRLEIK
[1]
  % positive: 1.1%
  MFI: 294
[2]
  MFI: 371
